The values below are quoted from earlier work in publication PMC8461181.

The target in this series is GnIH (Coturnix japonica) (UniProt Q9DGD4). Kind of series: Scatchard analysis.

As for GPR147 (from UniProt Q9GZQ6), the Kd is 0.752 nM.

The Kd is the concentration at which binding is half-saturated.
